These results are taken from the RNAGym collection of RNA variant scans (doi:10.7554/elife.90254).

Sequences and labels used below:
B1: OR4K15 (parent)
chain: GUUAACGGUCAUAGGCCAUGGAAACUAGGAGCACCAUUUCGCUGCCAGUGAAGAAAUGAACAAAGAAAAUCUGGGCCAGGCAGGCAUCAAAAGAAAUAGUCUUGCGCUCAACCAGAAAGUCUGUAAUCAUUUUAAGGGUA

In the data set the parent is B1. The experiment in a line: self-cleavage, relative activity (ratio to wild type); higher = more cleavage; in vitro, sequencing; the parent is a self-cleaving ribozyme.
With A82G U124A, the self-cleavage was 0.32. The result for A22U U72C reads 0.04. The result for A59G A62G reads 1.27; that for A59G A62U, 1.32.

A52G A62C: the self-cleavage was 1.53.

As to A33G U72G, the self-cleavage was 0.14. The same measure for A5G U103C: 0.27; for U43A U132A: 1.41. With C17U C109A, the self-cleavage was found to be 0.2. For A59U U70C, the self-cleavage amounted to 0.53. The result for U26C A89G reads 1.35; that for U97C U127C, 1.25; that for U2C A118G, 0.88.

For the variant A90G U100A, the self-cleavage is 0.31. The same measure for U43C A95U: 0.49. The same measure for A51G A95G: 1.7; for A68G U124A: 0.95. With A59G A67G, the self-cleavage amounted to 1.28.

As to A110C U132A, the self-cleavage worked out at 0.25. The result for C71G U87A reads 0.21; that for A56G G74U, 0.14. The result for U19A A54G reads 1.15.

Turning to A90G A94G, the self-cleavage amounted to 1.64. The result for U2C C76U reads 0.23; that for U49C A64G, 2.02. The same measure for A23G A134G: 0.76; for C16U A95G: 1.21. Regarding A59U A66G, the self-cleavage was found to be 1.31. For the variant A24U A36C, the self-cleavage turned out to be 1.63. The result for A33C A69G reads 1.71. For U26G A96G, the self-cleavage worked out at 1.78.

As to U49C G74A, the self-cleavage is 0.09. The result for A51C A95U reads 1.79; that for A33C A67U, 1.28; that for C85G, 1.18. For G1A A59G, the self-cleavage worked out at 1.36. The result for U57A U139A reads 0.91; that for A67C A125G, 0.85. The same measure for A47C A92U: 0.74; for A117U A135G: 0.7; for A5G G119U: 1.44.

A114G A129U: the self-cleavage came to 0.13. As for A82U A135U, the self-cleavage was found to be 0.12. The same measure for A51U A67U: 2.12; for A27G A96U: 1.83.

Take A4G U43G: the self-cleavage was determined as 0.55. The same measure for A60G A86G: 1.36; for A54U G106A: 0.02. The result for C46U A51U reads 0.64; that for A51G A94U, 1.78.

For A24C A62C, the self-cleavage was found to be 2.03. For the variant A47G A118G, the self-cleavage came out at 0.41. The same measure for U70C A78U: 0.52; for A4G U103A: 1.27; for A52U A67G: 0.87. For A30G G44A, the self-cleavage was determined as 1.15. The result for A60G A66U reads 1.26; that for A63G A66C, 0.27. For the variant U43C A86G, the self-cleavage was 1.32. The same measure for C35A U43A: 2.06.

Take C25U A114G: the self-cleavage came to 0.37. The same measure for U38C U130C: 1.5; for A68U U108C: 0.02; for A33G U39C: 0.8. The same measure for G65A U130C: 0.71; for A18G A52G: 1.67.

In the case of U3C A51G, the self-cleavage amounted to 1.12. Consider C34U A64G, for which the self-cleavage was found to be 0.98. The same measure for A59G U97C: 0.82; for U9C A11U: 1.67. For A86G C109U, the self-cleavage was found to be 0.22. On to A62G C112U, for which the self-cleavage was 0.01. The same measure for U39C U43A: 1.92. With A52G U130G, the self-cleavage was determined as 0.81. On to U39C A64C, for which the self-cleavage stood at 1.88.

As to A22G G48A, the self-cleavage came out at 1.56. Turning to A82G U103C, the self-cleavage was found to be 2.05. The same measure for U19C U49C: 1.6; for A18G C109U: 0.82. In the case of G44U, the self-cleavage turned out to be 1.91.

Turning to C77U A91G, the self-cleavage is 1.91. The result for U108C U133C reads 0.02; that for A36U A116U, 0.5; that for A36U A47U, 0.69. For U49C A86G, the self-cleavage worked out at 1.03.

For the variant A24G U124A, the self-cleavage worked out at 0.74. The result for U38A U43A reads 1.61; that for U2C A126G, 1.22; that for U38C U72G, 0.27.

As for A33G A64C, the self-cleavage came to 1.17. For A33G A64U, the self-cleavage worked out at 0.99. On to A59G U133A, for which the self-cleavage came to 1.28. The same measure for U26C A27U: 1.2; for A27U U120A: 1.85; for U37C A54G: 1.51. Turning to U43A A95G, the self-cleavage was 0.92.

For the variant A62G G84C, the self-cleavage is 0.49. Turning to U19A A114G, the self-cleavage turned out to be 0.55.

As to A96U A135U, the self-cleavage is 0.78.

As to C10A A86G, the self-cleavage is 0.31. The same measure for A111C U132C: 0.01; for G8A A129U: 1.63; for C46A U97A: 1.43. As to U133C A140G, the self-cleavage was 1.34. The same measure for A94U A135U: 1.75; for U2C A36G: 1.25; for G14U A135C: 1.41. With A11G A27C, the self-cleavage turned out to be 0.61. The same measure for C6U C46U: 1.03. A33G U87A: the self-cleavage turned out to be 0.66.

For U39A G104A, the self-cleavage turned out to be 0.03. The result for A55U U87C reads 1.64; that for C40U A114G, 0.5. Regarding A13G C34G, the self-cleavage was 0.83. As for A60U A140U, the self-cleavage was found to be 1.59. The same measure for A96G U122C: 1.38.

In the case of G80A A129U, the self-cleavage was found to be 0.02. The same measure for A5U U127C: 1.03; for U57A A69C: 0.34.

A96G G115A: the self-cleavage worked out at 0.07. The result for U57C A69C reads 0.84; that for A59U A69G, 1.51; that for A67G A96U, 1.03. The result for A47G A89U reads 0.42; that for A47G U130C, 0.33; that for A64U U70C, 1.06. For A30G A64G, the self-cleavage was found to be 1.35.

As for A59C U127A, the self-cleavage worked out at 1.3. The same measure for A59G G104A: 0.06. The result for A22G A27G reads 1.04; that for G14A A114U, 0.01. The result for U57C C121U reads 2.46. As for A18G A54G, the self-cleavage came to 0.96. The result for A60G C113U reads 0.09; that for A52U U103C, 1.36.

For the variant A36C A62G, the self-cleavage came out at 2. The result for A55C U103A reads 0.38; that for A52G A89U, 1.7. The same measure for U2A A95G: 1.21. For G7A G44U, the self-cleavage was found to be 1.28.

Turning to U57A A116G, the self-cleavage amounted to 0.94. The same measure for U9A A67U: 0.67; for A91G G106A: 0.01.

With A51G A129G, the self-cleavage came out at 1.11. The result for A22U A56G reads 1.16; that for G21A A78U, 0.86. Turning to A36G A86U, the self-cleavage came to 2.91. The result for A5C A68G reads 1.63. The result for A82U A86G reads 0.12; that for U9C A78U, 0.56. The same measure for A86U C112U: 0.02; for A78C A116G: 0.13. As to A23U U130C, the self-cleavage amounted to 0.7. A89G A96G: the self-cleavage came out at 0.83. The same measure for A64G G84C: 0.31. Regarding U87A A95G, the self-cleavage is 0.76. For U39A A86C, the self-cleavage worked out at 1.21.

Take G28A A55C: the self-cleavage came to 1.7. Regarding C17U A110U, the self-cleavage was 1.55.

As to A62U A82G, the self-cleavage amounted to 0.67. Consider U139G, for which the self-cleavage was 1.1. The result for U72C G80A reads 0.38. The result for A47U A126C reads 0.72.

U19A A140G: the self-cleavage came to 1.75. Turning to U57C U120A, the self-cleavage was 2.01. For U39G A47U, the self-cleavage is 0.98.

For the variant U12C G28A, the self-cleavage stood at 1.29.
